Measured values as given in US20010016351.

Test system: GFP-CBP fusion protein (green fluorescent protein with C-terminal thrombin-cleavable calmodulin binding peptide tag, expressed from GFP Clone No. 2995-87.6 in BL21(DE3) cells) [GFP: P42212]

For thrombin, the “cleavage of the fusion protein by thrombin at 6 h” value was “Fifty percent cleavage was observed at 6 h” and the “cleavage of the fusion protein by thrombin at 24 h” value was 95 percent cleavage was achieved at 24 h.
